This note sets out measurements from patent US20260258115A1 (MAPP BIOPHARMACEUTICAL, published 2026).

Assay [1] concerns the target T1, RSV prefusion F (preF), subtype B (respiratory syncytial virus subtype B).
T1 construct: also called Prefusion subtype B
The experiment in a line: BLI, IgG. (BLI is a label-free optical method that tracks binding on a fibre tip over time.)

Assay [2] has as its target T2, RSV postfusion F (postF), subtype A (respiratory syncytial virus subtype A, UniProt P03420 26-513).
T2 construct: also called Postfusion subtype A; F deltaFP
The experiment in a line: BLI, IgG.

Assay [3] has as its target T3, RSV postfusion F (postF), subtype B (respiratory syncytial virus subtype B).
T3 construct: also called Postfusion subtype B
The experiment in a line: BLI, IgG.

Assay [4] addresses RSV F on RSV subtype B virus (mKate-RSV B 18537) (respiratory syncytial virus B 18537, UniProt P13843 26-574). In words: cell-based or functional assay.
Assay [5] concerns the target RSV F on RSV subtype A virus (mKate-RSV A2) (respiratory syncytial virus A2, UniProt P03420 26-574). In words: cell-based or functional assay.
Assay [6] deals with RSV fusion glycoprotein (RSV F) on RSV-A2 virus (respiratory syncytial virus, UniProt P03420 26-574). The experiment in a line: cell-based or functional assay.
Assay [7] deals with RSV postfusion F (postF), F deltaFP (respiratory syncytial virus, UniProt P03420 26-513). In words: BLI, IgG on sensor, 100 nM antigen.
Assay [8] addresses RSV prefusion F (preF), DS-Cav1 (respiratory syncytial virus, UniProt P03420 26-513). The experiment in a line: BLI, IgG on sensor, 100 nM antigen.

Where only a bound is given, the exact number is not on record here.

B1: ADI-14338 (antibody, V domains shown)
VH: EVQLVESGGGVVQPGRPLRLSCAASGFTFSTYDLYWVRQAPGKGLDWVAIISPDGNKKYYADSVKGRFTISRDNSKNTLFLHMNSLRAEDTAVYYCARDYGNYFGSGSYYRYFDLWGRGTLVTVSS
VL: DIQLTQSPSSLSASVGDRVTITCRASQSISSHLNWYQQKPGKAPKLLIYASSSLQSGVPSRFSGSGSGTDFTLTISGLQPEDFATYYCQQSYSTPFTFGPGTKVEIK
notes: full-length IgG; also called Ab 6
One may read the Kd as the concentration at which binding is half-saturated. Lower therefore signals tighter binding. Consider B1, for which the Kd is 7.04 nM in assay [1], 5.98 nM in assay [2] and 3.14 nM in assay [3]. Further, the “Neut IC50 subtype B” value in assay [4] is 10.2 µg/mL.

B2: ADI-14368 (antibody, V domains shown)
VH: EVQLVESGGGLVKPGGSLRLSCAASGFTFINAWMSWVRQAPGKGLEWVGRIKSKADGGTTDDAAPVKGRFTISRDDSKNTLYLQMNSLKIEDTAVYYCATDVLPLYNWNLGWNFDLWGRGTLVTVSS
VL: SYVLTQPPSVSVAPGKTARITCGGNNIADKSVHWYQQKPGQAPVLVMYYDTDRPSGIPERFSGFNSGNTATLTISRVEAGDEADYYCQVWDSSSDHVVFGGGTKVTVL
notes: full-length IgG; also called Ab 36
For the molecule B2, the Kd in assay [1] worked out at 1.21 nM; in assay [2], 24.5 nM; in assay [3], 17.7 nM. Moreover, the “Neut IC50 subtype B” value in assay [4] is 1.1 µg/mL.

B3: ADI-14355 (antibody, V domains shown)
VH: EVQLVESGPTLVKPTQTLTLTCTFSGFSLSTSGVGVGWIRQPPGKALEWLAVIYWDDDKTYSPSLKSRLTITKDTSKNQVVLTMTNMNPVDTATYYCARCPAPVYSYGVDVWGQGTTVTVSS
VL: QSALTQPASVSGSPGQSITISCTATSSDFGGYDYVSWYQQHPGEAPKLMISDVTNRPSGVSNRFSGSKSGNTASLTISGLQAEDEADYYCSSYTSYTTPYVFGTGTKLTVL
notes: full-length IgG; also called Ab 23
As for B3, the Kd in assay [1] is 1.25 nM; in assay [2], 0.48 nM; in assay [3] it was 0.37 nM. Moreover, the “Neut IC50 subtype B” value in assay [4] turned out to be 4.72 µg/mL.

B4: ADI-14365 (antibody, V domains shown)
VH: QVQLVQSGAEVKKPGASVKVSCKVSGYTLTKLSMHWVRQAPGKGLEWMGFFDPEDGDTLYAQKFQGRVTMTEDTSSDTPYMELRSLRSEDTAVYYCASPAAAGQFDYWGQGTLVTVSS
VL: DIVMTQSPSSLSASVGDRVTITCRASQFISSYLHWYQQKTGKAPKLLIYAASSLQSGVPSRFSGSGSGTDFTLTISSLQPEDFATYYCQQSYNTPRTFGQGTKLEIK
notes: full-length IgG; also called Ab 33
Consider B4, for which the Kd in assay [1] was 0.962 nM; in assay [2], 10.3 nM; in assay [3], 22.3 nM. In addition, the “Neut IC50 subtype A” value in assay [5] was determined as 0.8 µg/mL. Also, the “Neut IC50 subtype B” value in assay [4] worked out at 0.49 µg/mL.

B5: ADI-41360 (antibody, V domains shown)
VH: EVQLVESGGGLVQPGGSLRLSCAASGLTFSRYSMNWVRQAPGKGLEWVSYISSTGRRIQYADSVKGRFTISRDDGKNSLYLQMNSLRAEDTAVYYCARDPLNYHDNTAYWSYWGQGTLVTVSS
VL: NFMLTQPHSVSESPGKTVTISCTRSSGSIASNYVQWYQQRPGSAPTTVIYEDNQRPSGVPDRFSGSIDSSSNSASLTISGLKTEDEADYYCQSYDSSNPLVFGGGTKLTVL
notes: IgG1; also called Ab 657
Turning to B5, the “Neutralization IC50 (RSV subtype A)” value in assay [6] was more than 25 µg/mL. For the same molecule, the Kd in assay [7] stood at 0.358 nM; in assay [8] it was 2.46 nM.

B6: ADI-41366 (antibody, V domains shown)
VH: QVQLVQSGAEVKKPGESLKISCKASGYSSTTYWIGWVRQISGKGLEWMGIIYPGDSDTRYSPSFQGQVTISADRSTKTAYLQWSSLKASDTAMYYCGTSGFGVATPFDYWGQGTLVTVSS
VL: NFMLTQPHSVSESPGKTVTISCTRTSGSIAGNYVHWYQQRPGSAPTTVIYEDNQRPSGVPDRFSGSIDRSSNSASLTISGLKTEDEADYYCQSYASGIHGVFGGGTKVTVL
notes: IgG1
In the case of B6, the “Neutralization IC50 (RSV subtype A)” value in assay [6] was more than 25 µg/mL. Besides, the Kd in assay [7] turned out to be 0.278 nM; in assay [8], 1.79 nM.

B7: ADI-14350 (antibody, V domains shown)
VH: EVQLVESGPGLVKPSETLSLTCTVSGDSVSNNNYYWNWIRQSPGKGLEWIGYIYYSGSTDYNPSLKSRVTISVDTSKNQFSLNLRSVTAADTAIYFCASAPWGMFTILGVVP
VL: QSVLTQPPSVSGAPGQRVTISCTGSSSNIGAGYDVHWYQQLPGTAPKLLIYGSSNRPSGVPDRFSGSRSGTSASLAITGLQAEDEADYYCQSYDGSLGVYVFATGTKVTVL
notes: full-length IgG; also called Ab 18
For B7, the Kd was 0.574 nM in assay [1], 0.264 nM in assay [2] and 0.148 nM in assay [3]. Further, the “Neut IC50 subtype B” value in assay [4] amounted to 4.82 µg/mL.

B8: ADI-22759 (antibody, V domains shown)
VH: EVQLLESGGGLVKPGGSLRLSCAASGFSFSSYTMNWVRQAPGKGLEWVSSITGGSSYIDYAGSLKGRFTISRDNAKNSLYLQMNSLRVEDTAVYYCARDFPNIAVGGKTLDYWGQGTLVTVSS
VL: QPVLTQPPSVSGAPGQRVTISCTGSSSNIGAGYDVHWFQQLPGTAPKLLIYVNNNRPSGVPDRFSGSKSGTSASLAITGLQAEDEADYYCQSYDRLSAVVFGGGTKVTVL
notes: full-length IgG
Regarding B8, the results for the Kd in assay [1], in assay [2] and in assay [3] were 0.353 nM, 25.3 nM and 10.1 nM, respectively. For the same molecule, the “Neut IC50 subtype A” value in assay [5] stood at 0.08 µg/mL. In addition, the “Neut IC50 subtype B” value in assay [4] came to 0.2 µg/mL.

B9: ADI-41355 (antibody, V domains shown)
VH: EVQLVESGGGLVKPGGSLRLSCTASGFTFSDYYMNWIRQAPGKGLEWVSYISGDGNTIYYTDSVKGRFTISRDNAKNSLFLQMNSLRGEDSAVYYCAGPVRGYTYGIFDYWGQGALVTVSS
VL: YYVLTQPPSVSVAPGQAARITCGGNNIGSRSVNWYQQKPGQAPVVVIYGDSVRPSGIPERFSGSNSGNTATLTFSRVEAGDEADYYCQVWETNSDHPVVFGGGTKVTVL
notes: IgG1
For the molecule B9, the “Neutralization IC50 (RSV subtype A)” value in assay [6] is more than 25 µg/mL. The Kd in assay [7] stood at 1.18 nM; in assay [8], 3.84 nM.

B10: ADI-41365 (antibody, V domains shown)
VH: EVQLVESGGGLVKPGGSLRLSCATSGFTFSDYYMTWIRQAPGKGLEWVSYISSSGGYTNYADSVRGRFTISRDNAKRSLYLQMNSLRAEDTAVYYCARVEFSSGDVPSLFDSWGQGTLVTVSS
VL: QSVLTQPPSVSGAPGQRVTISCTGSSSNLGAGYHVHWYQQFPGTAPKPLIYGNTNRPSGVPDRFSGSKSGTSASLAITGVQAEDEADYYCQSYDYSLSGWVFGGGTKLTVL
notes: IgG1
Turning to B10, in assay [6], the “Neutralization IC50 (RSV subtype A)” value was more than 25 µg/mL. For the same molecule, the Kd amounted to 2.22 nM in assay [7] and 2.87 nM in assay [8].

B11: ADI-19482 (antibody, V domains shown)
VH: QVQLQQWGAGLLKPSETLSLTCGAFHGSFSGYYWSWIRQPPGKGLEWIGEVTHSRSTNYNPSLKSRITISVDTSRNQFSLKLNSVTAADTAVYYCARGSGEWYFDIWGRGTLVTVSS
VL: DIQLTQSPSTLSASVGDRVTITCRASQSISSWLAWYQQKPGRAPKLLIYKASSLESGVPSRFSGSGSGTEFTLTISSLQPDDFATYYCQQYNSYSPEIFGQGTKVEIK
notes: full-length IgG
On to B11, for which the Kd came out at 1.89 nM in assay [1], 1.71 nM in assay [2] and 0.555 nM in assay [3]. Further, in assay [5], the “Neut IC50 subtype A” value was 1.49 µg/mL. In addition, the “Neut IC50 subtype B” value in assay [4] was determined as 2.24 µg/mL.

B12: ADI-41354 (antibody, V domains shown)
VH: EVQLLESGGGLVQPGGSLRLSCAASGFTFSSYAMSWVRQAPGKGLEWVSGISGSGGTTYYADSVKGRFTISRDNSKNTLYLQMNSLRAEDTAVYYCAKDSPVNINCGGDCDVAYWGQGTLVTVSS
VL: EIVMTQSPSSLSASVGDTVTITCQASQDISYSLNWYQQKPGKAPNLLIFDASHLQTGVPSRFSGGGDGKHFSFTISSLQPEDVATYYCQQYDSLMYTFGQGTKVEIK
notes: IgG1; also called Ab 651
On to B12, for which the “Neutralization IC50 (RSV subtype A)” value in assay [6] is more than 25 µg/mL. Moreover, the results for the Kd in assay [7] and in assay [8] were 0.429 nM and 0.771 nM, respectively.
